Results: the nanobody polyreactivity screen of Harvey et al. (2022)

experiment: yeast display, Sf9 membrane polyspecificity reagent, FACS + sequencing; frameworks hold sequencing errors
Procedure, shortened: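 Nanobodies came from a synthetic yeast display library in Saccharomyces cerevisiae BJ5465, induced with galactose for 36–48 hours and stained for 1 hour at 4 °C with 10% biotinylated, detergent-solubilized Sf9 membrane reagent. Cells were enriched on streptavidin microbeads and then FACS-sorted, with low and high (top ~1%) gates set on anti-HA fluorescence for expression and streptavidin fluorescence for reagent binding. Each polyreactivity label reflects the gate a clone came from. Genes were amplified by colony PCR, sequenced by MiSeq 2 × 250 and filtered by CDR length.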

Sequence	polyreactivity (PSR sort gate)
QVQLVESGGGLVQAGGSLRLSCAASGSIFGSYAMGWYRQAPGKERELVAGITRRSGSTYYADSVKGRFTISRDNAKNTVYLQMNSLKPEDTAVYYCAADTWFGMDYWGQGTQVTVSS	high polyreactivity
QVQLVESGGGLVQAGGSLRLSCAASGSIFGSYAMGWYRQAPGKERELVAGITRRSGSTYYADSVKGRFTISRDNAKNTVYLQMNSLKPEDTAVYYCNAQAYSRRWDARGDYWGQGTQVTVSS	high polyreactivity
QVQLVESGGGLVQAGGSLRLSCAASGSIFGSYAMGWYRQAPGNERELVAAISKSGGNTYYADSVKGRFTISRDNAKNTVYLQMNSLKPEDTAVYYCAARYRFLRPKVNYWGQGTQVTVSS	high polyreactivity
QVQLVESGGGLVQAGGSLRLSCAASGSIFGSYARGRYRQAPVKERELVAGITYRGSSTYYADSVKGRFTISRDKAKNTVYLQMNSLKPEDTAVYYCAADPVFDEYDYWGQGTQVTVSS	low polyreactivity
QVQLVESGGGLVQAGGSLRLSCAASGSIFGSYTMGWYRQAPGKERELVAAITSSGGGTYYADSVKGRFTISRDNAKNTVYLQMNSLKPEDTAVYYCAAEYRDGYRFSYDYWGQGTQVTVSS	low polyreactivity
QVQLVESGGGLVQAGGSLRLSCAASGSIFGTNAMGWYRQAPGKERELVAAIDGGSTTYYADSVKGRFTISRDNAKNTVYLQMNSLKPEDTAVYYCAADGTRYLNYEGYAGYEYWGQGTQGTVSS	low polyreactivity
QVQLVESGGGLVQAGGSLRLSCAASGSIFGTNAMGWYRQAPGKERELVAAISTSADITYYADSVKGRFTISRDNAKNTVYLQMNSLKPEDTAVYYCNKRKWPTFTYAMNYWGQGTQVTVSS	low polyreactivity
QVQLVESGGGLVQAGGSLRLSCAASGSIFGTYAMGWYRQAPGKERELVAAISFIGGDTYYADSVKGRFTISRDNAKNTVYLQMNSLKPEDTAVYYCAADRELSGYGGEYWGQGTQVTVSS	low polyreactivity
QVQLVESGGGLVQAGGSLRLSCAASGSIFGVNAMGWYRQAHGKERELVASITGGDSTNYADSVKGRFTISRDNAKNTVYLLMNSLKPEDTAVYYCAKDHYYRYEEGDYWGQGTQVTVSS	low polyreactivity
QVQLVESGGGLVQAGGSLRLSCAASGSIFGVNAMGWYRQAPGKERELVAAISSGGSTNYADSVKGRFTISRDNAKNTVYLQMNSLKPEDTAVYYCAADTKTRSNYDYWGQGTQVTVSS	low polyreactivity
QVQLVESGGGLVQAGGSLRLSCAASGSIFGVNDMGWYRQAPGKERELVAGISSGGSTYYADSVKGRFTISRDNAKNTVYLQMNSLKPEDTAVYYCAKPYYDGRTHFDSWGQGTQVTVSS	low polyreactivity
QVQLVESGGGLVQAGGSLRLSCAASGSIFGVYAMGWYRQAPGKERELVARISGSSGSTRYSDSVKGRFTISRDNAKNTVYLQMNSLKPEDTAVYYCAARAIFRQGDRIYDSWGQGTQVTVSS	high polyreactivity
QVQLVESGGGLVQAGGSLRLSCAASGSIFGVYAMGWYRQAPGKERELVASITSGSSTNYADSVKGRFTISRDNAKNTVYLQMNSLKPEDTAVYYCAAGRTSRSRRYYRFFYAGDYWGQGTQVTVSS	low polyreactivity
QVQLVESGGGLVQAGGSLRLSCAASGSIFGVYAMGWYRQAPGQERELVAVITWSDGGTYYADSVKGRFTISRDNAKNTVYLQMNSLKPEDTAVYYCAKERYDYSYDYWGQGTQVTVSS	high polyreactivity
QVQLVESGGGLVQAGGSLRLSCAASGSIFGWYAMGWYRQAPGKERELVAAISSSDGSTYYADSVKGRFTISRDNAKNTVYLQMNSLTPEDTAVYYCAKVYIRQNLAPYGYWGQGTQVTVSS	low polyreactivity
QVQLVESGGGLVQAGGSLRLSCAASGSIFGWYAMGWYRQAPGKERELVATISSGGSTSYADSVKGRFTISRDNAKNTVYLQMKSLKPEDTAVYYCAADIYPDWIYLLYGYWGQGTQVTVSS	low polyreactivity
QVQLVESGGGLVQAGGSLRLSCAASGSIFGWYVMGWYRQAPGKERELVAAISSVGSTYYADSVKGRFTISRDNAKNTVYLQMNSLKPEDTAVYYCAADRVWGTPQAYVPSQFDYWGQGTQVTVSS	low polyreactivity
